Reference: PMC5849085 (Immunity, 2017)

What was measured:
[1] = target: T1, human IL-1RAcP (residues 1-350) (human, UniProt Q9NPH3 21-350); assay: HDX-MS
T1 sequence (looked up): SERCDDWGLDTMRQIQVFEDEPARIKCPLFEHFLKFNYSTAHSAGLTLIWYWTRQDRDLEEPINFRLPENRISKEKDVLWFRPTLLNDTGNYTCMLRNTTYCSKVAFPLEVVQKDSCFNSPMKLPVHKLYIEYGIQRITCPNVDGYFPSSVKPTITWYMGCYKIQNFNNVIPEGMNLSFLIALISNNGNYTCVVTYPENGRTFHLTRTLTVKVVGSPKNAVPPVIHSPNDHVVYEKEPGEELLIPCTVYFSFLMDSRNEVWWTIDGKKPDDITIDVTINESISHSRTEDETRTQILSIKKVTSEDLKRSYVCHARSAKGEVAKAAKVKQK

[2] = target: T2, human IL-1RAcP (residues 1-350) fused to human IgG1-Fc (human, UniProt Q9NPH3 21-350); assay: SPR
T2 sequence (looked up): T1 sequence (looked up)

B1: human IL-33:ST2 binary complex (complex)
chain 1: SITGISPITEYLASLSTYNDQSITFALEDESYEIYVEDLKKDEKKDKVLLSYYESQHPSNESGDGVDGKMLMVTLSPTKDFWLHANNKEHSVELHKCEKPLPDQAFFVLHNMHSNCVSFECKTDPGVFIGVKDNHLALIKVDSSENLCTENILFKLSET
chain 2: QTGKFSKQSWGLENEALIVRCPRQGKPSYTVDWYYSQTNKSIPTQERNRVFASGQLLKFLPAAVADSGIYTCIVRSPTFNRTGYANVTIYKKQSDCNVPDYLMYSTVSGSEKNSKIYCPTIDLYNWTAPLEWFKNCQALQGSRYRAHKSFLVIDNVMTEDAGDYTCKFIHNENGANYSVTATRSFTVKDEQGFSLFPVIGAPAQNEIKEVEIGKNANLTCSACFGKGTQFLAAVLWQLNGTKITDFGEPRIQQEEGQNQSFSNGLACLDMVLRIADVKEEDLLLQYDCLALNLHGLRRHTVRLSRK
half-life of the ternary complex (EX1 kinetics of IL-1RAcP(150-156)) [1]: 10 min | half-life of the ternary complex [2]: 26 min
